The record followed here is paper PMC3884763.

The target of the experiment is Cavernularia obesa green fluorescent protein (CoGFP), wild-type, with a histidine tag at the N-terminus (Cavernularia obesa). The experiment is described as follows: SEC. In general terms: In gel filtration, larger molecules generally elute earlier.

By stoichiometry N is commonly meant the number of molecules, sites or subunits per partner or assembly.

Regarding “Cavernularia obesa green fluorescent protein (CoGFP), wild-type, with a histidine tag at the N-terminus (natural protein)”, the stoichiometry N was found to be 2.
